Test results: the supplement of paper PMC10126150
± gives the standard deviation of the averaged measurements.

Tested on: ATP
Assay: switch fluorescence ratio, 500 uM ATP over buffer (Cy3 cluster intensity, sum of 5 cycles each) (fold (ratio)); higher = stronger signal-on switching upon ATP binding; sequences stand for … in TCGTCGGCAGCGTCAGATGTGTATAAGAGACAGTTTTTTTTTTTTTTTTTTTTTTTTT…TC
Settings: aptamer strand: ATP DNA aptamer (quencher-CACCTGGGGGAGTATTGCGGAGGAAGG + anchor), 100 nM annealed; ATP concentration: 500 uM
Summary of the method: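 Per cluster, summed Cy3 intensity from the target cycles was divided by that from the buffer cycles to give the fluorescence ratio, then averaged per switch-domain sequence. Clusters outside 100-1000 RFU were excluded. The Cy3-labelled switching-strand clusters, on a modified Illumina MiSeq flow-cell, were annealed to 100 nM quencher-labelled ATP aptamer and imaged in selection buffer, then after 15 min with 500 uM ATP at 22 °C, for five cycles with NaOH stripping and re-annealing between them.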
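Further: ATP exposure 15 min at 22 °C before imaging.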

GAAAATGAAG
switch fluorescence ratio: 1.01 ± 0.031

GAAAATGTTT
switch fluorescence ratio: 1.0053 ± 2.1e-05

GAAAATTGGG
switch fluorescence ratio: 0.983 ± 0.015

GAAACCGGAT
switch fluorescence ratio: 0.966 ± 0.041

GAAACGATGT
switch fluorescence ratio: 1.08 ± 0.05

GAAACGCTTT
switch fluorescence ratio: 1.03 ± 0.057

GAAACGGCGG
switch fluorescence ratio: 1.04 ± 0.055

GAAACTAATT
switch fluorescence ratio: 0.9966 ± 0.0042

GAAACTTGAC
switch fluorescence ratio: 1.61 ± 0.039

GAAAGGAATG
switch fluorescence ratio: 1.041 ± 0.007

GAAAGGGTGG
switch fluorescence ratio: 0.9746 ± 0.0081

GAAAGGTTGG
switch fluorescence ratio: 0.993 ± 0.025

GAAAGTATAA
switch fluorescence ratio: 0.998 ± 0.013

GAAAGTTAAG
switch fluorescence ratio: 1.015 ± 0.0049

GAAAGTTTTG
switch fluorescence ratio: 1.01 ± 0.059

GAAATAAGGT
switch fluorescence ratio: 0.99 ± 0.024

GAAATAAGTG
switch fluorescence ratio: 1.04 ± 0.026

GAAATAATGT
switch fluorescence ratio: 1.03 ± 0.055

GAAATACGGT
switch fluorescence ratio: 1.19 ± 0.17

GAAATAGTTT
switch fluorescence ratio: 1.02 ± 0.021

GAAATCAGGT
switch fluorescence ratio: 1.02 ± 0.019

GAAATCGCTG
switch fluorescence ratio: 0.97 ± 0.072

GAAATGAATA
switch fluorescence ratio: 1 ± 0.011

GAAATGACTT
switch fluorescence ratio: 1.03 ± 0.015

GAAATGCTCT
switch fluorescence ratio: 1.01 ± 0.033

GAAATGGAAG
switch fluorescence ratio: 1 ± 0.038

GAAATTAGAT
switch fluorescence ratio: 1.003 ± 0.0098

GAAATTAGGA
switch fluorescence ratio: 1.01 ± 0.028

GAAATTCACA
switch fluorescence ratio: 1.04 ± 0.031

GAAATTGGGT
switch fluorescence ratio: 0.981 ± 0.018

GAACACGGCG
switch fluorescence ratio: 1 ± 0.05

GAACAGGGGG
switch fluorescence ratio: 1.01 ± 0.046

GAACATGATA
switch fluorescence ratio: 1.02 ± 0.028

GAACATTTTT
switch fluorescence ratio: 1.03 ± 0.021

GAACCAGGGG
switch fluorescence ratio: 1.27 ± 0.088

GAACCGGTAC
switch fluorescence ratio: 1.21 ± 0.019

GAACGCTGGA
switch fluorescence ratio: 1.04 ± 0.056

GAACGCTTGG
switch fluorescence ratio: 1.05 ± 0.023

GAACGGGGGT
switch fluorescence ratio: 1 ± 0.015

GAACGGGTAC
switch fluorescence ratio: 1.42 ± 0.17

GAACGTTATT
switch fluorescence ratio: 1.2 ± 0.23

GAACTATTCA
switch fluorescence ratio: 0.9848 ± 0.0054

GAACTCCGGG
switch fluorescence ratio: 1.1 ± 0.054

GAACTCGGGG
switch fluorescence ratio: 1.019 ± 0.0051

GAACTCTGGG
switch fluorescence ratio: 0.9899 ± 0.006

GAACTGCATA
switch fluorescence ratio: 1.09 ± 0.085

GAACTGGGGG
switch fluorescence ratio: 1 ± 0.019

GAACTTAAAA
switch fluorescence ratio: 1.02 ± 0.045

GAACTTCGGT
switch fluorescence ratio: 0.946 ± 0.013

GAAGAAAGCG
switch fluorescence ratio: 1.007 ± 0.0094

GAAGAAGGCT
switch fluorescence ratio: 0.89 ± 0.078

GAAGAATAGG
switch fluorescence ratio: 0.967 ± 0.015

GAAGACGGGA
switch fluorescence ratio: 1.01 ± 0.045

GAAGAGATGT
switch fluorescence ratio: 1.01 ± 0.021

GAAGAGGGGA
switch fluorescence ratio: 1.01 ± 0.013

GAAGATGAGG
switch fluorescence ratio: 1 ± 0.028

GAAGATGGTT
switch fluorescence ratio: 0.969 ± 0.018

GAAGATTTGC
switch fluorescence ratio: 0.973 ± 0.012

GAAGCAAAGG
switch fluorescence ratio: 2.04 ± 0.074

GAAGCCGGGC
switch fluorescence ratio: 1.04 ± 0.022

GAAGCTAATC
switch fluorescence ratio: 2.77 ± 0.47

GAAGCTGTTT
switch fluorescence ratio: 1.026 ± 0.0042

GAAGCTTTTT
switch fluorescence ratio: 1 ± 0.047

GAAGGAAGGT
switch fluorescence ratio: 0.9996 ± 0.007

GAAGGACAGA
switch fluorescence ratio: 1 ± 0.018

GAAGGAGGTT
switch fluorescence ratio: 1 ± 0.012

GAAGGCATTT
switch fluorescence ratio: 1.16 ± 0.28

GAAGGGAAGA
switch fluorescence ratio: 0.96 ± 0.012

GAAGGGATTT
switch fluorescence ratio: 1.13 ± 0.11

GAAGGGCTAG
switch fluorescence ratio: 0.9985 ± 0.0061

GAAGGGGCCC
switch fluorescence ratio: 1.02 ± 0.013

GAAGGGGCCG
switch fluorescence ratio: 1.12 ± 0.07

GAAGGGGGAG
switch fluorescence ratio: 0.996 ± 0.028

GAAGGGGGTG
switch fluorescence ratio: 1.02 ± 0.039

GAAGGGGTTT
switch fluorescence ratio: 0.999 ± 0.03

GAAGGTAGGT
switch fluorescence ratio: 0.98 ± 0.024

GAAGGTGGGG
switch fluorescence ratio: 0.992 ± 0.037

GAAGTACCTT
switch fluorescence ratio: 1.2 ± 0.044

GAAGTACTAT
switch fluorescence ratio: 1.2 ± 0.021

GAAGTAGCGG
switch fluorescence ratio: 1.018 ± 0.0084

GAAGTAGTAA
switch fluorescence ratio: 1.02 ± 0.03

GAAGTCCGCG
switch fluorescence ratio: 1.42 ± 0.077

GAAGTCCGGT
switch fluorescence ratio: 0.955 ± 0.024

GAAGTCTGGG
switch fluorescence ratio: 0.9767 ± 0.0021

GAAGTGCATT
switch fluorescence ratio: 0.98 ± 0.053

GAAGTGGGAT
switch fluorescence ratio: 0.984 ± 0.022

GAAGTGGGTG
switch fluorescence ratio: 1.11 ± 0.17

GAAGTGTGGC
switch fluorescence ratio: 1.08 ± 0.031

GAAGTTAGTT
switch fluorescence ratio: 0.993 ± 0.038

GAAGTTGGAG
switch fluorescence ratio: 0.97 ± 0.053

GAAGTTGTCG
switch fluorescence ratio: 1.02 ± 0.02

GAATAAGAGA
switch fluorescence ratio: 0.974 ± 0.036

GAATAAGATC
switch fluorescence ratio: 1.02 ± 0.042

GAATAAGATT
switch fluorescence ratio: 1.01 ± 0.061

GAATAAGGTA
switch fluorescence ratio: 0.993 ± 0.011

GAATATTGTA
switch fluorescence ratio: 0.988 ± 0.013

GAATATTTAA
switch fluorescence ratio: 0.998 ± 0.014

GAATCACTAA
switch fluorescence ratio: 1 ± 0.059

GAATCAGGG
switch fluorescence ratio: 0.972 ± 0.034

GAATCATAGT
switch fluorescence ratio: 1.003 ± 0.0083

GAATCCGGTT
switch fluorescence ratio: 0.989 ± 0.019

GAATCCGTAG
switch fluorescence ratio: 1.16 ± 0.03

GAATCGGTAG
switch fluorescence ratio: 0.9783 ± 0.0013

GAATCTTGCG
switch fluorescence ratio: 0.95976 ± 0.00094

GAATGAGAGA
switch fluorescence ratio: 1 ± 0.037

GAATGGAGCC
switch fluorescence ratio: 0.995 ± 0.022

GAATGGCATG
switch fluorescence ratio: 0.991 ± 0.034

GAATGGCTGC
switch fluorescence ratio: 1.04 ± 0.0048

GAATGGGAGG
switch fluorescence ratio: 0.975 ± 0.02

GAATGGGATT
switch fluorescence ratio: 0.976 ± 0.018

GAATGGGGGG
switch fluorescence ratio: 1.01 ± 0.078

GAATGGGGTA
switch fluorescence ratio: 1.011 ± 0.0057

GAATGGGTTA
switch fluorescence ratio: 0.965 ± 0.018

GAATGGTCGC
switch fluorescence ratio: 0.963 ± 0.026

GAATGTAGTC
switch fluorescence ratio: 1.01 ± 0.013

GAATGTGGGT
switch fluorescence ratio: 0.994 ± 0.013

GAATGTTAAT
switch fluorescence ratio: 1.04 ± 0.027

GAATTAAATA
switch fluorescence ratio: 1.02 ± 0.018

GAATTAGCAC
switch fluorescence ratio: 1.05 ± 0.038

GAATTATTGT
switch fluorescence ratio: 0.959 ± 0.022

GAATTATTTT
switch fluorescence ratio: 1.12 ± 0.16

GAATTCACGG
switch fluorescence ratio: 1.06 ± 0.038

GAATTGGATC
switch fluorescence ratio: 1.02 ± 0.019

GAATTGGGCT
switch fluorescence ratio: 0.9679 ± 0.0032

GAATTGGGGA
switch fluorescence ratio: 1.01 ± 0.029

GAATTGGTAA
switch fluorescence ratio: 1.013 ± 0.0076

GAATTTAGTC
switch fluorescence ratio: 1.06 ± 0.077

GAATTTCGAT
switch fluorescence ratio: 0.976 ± 0.011

GAATTTGGGG
switch fluorescence ratio: 0.961 ± 0.03

GAATTTTAGG
switch fluorescence ratio: 0.9889 ± 0.0096

GAATTTTTGG
switch fluorescence ratio: 0.997 ± 0.017

GAATTTTTGT
switch fluorescence ratio: 0.956 ± 0.018

GAATTTTTTA
switch fluorescence ratio: 0.999 ± 0.018

GACACAGTGT
switch fluorescence ratio: 0.98 ± 0.026

GACACGTGTT
switch fluorescence ratio: 1.03 ± 0.045

GACACTATTG
switch fluorescence ratio: 0.999 ± 0.016

GACACTGCCC
switch fluorescence ratio: 1.13 ± 0.048

GACAGAAGTG
switch fluorescence ratio: 1.02 ± 0.019

GACAGCAGGT
switch fluorescence ratio: 1.07 ± 0.011

GACAGCGGGT
switch fluorescence ratio: 1.01 ± 0.015

GACAGGGCGG
switch fluorescence ratio: 0.983 ± 0.049

GACAGGGGTT
switch fluorescence ratio: 1.04 ± 0.015

GACAGGGTTA
switch fluorescence ratio: 1.001 ± 0.0086

GACAGGTATC
switch fluorescence ratio: 1.01 ± 0.057

GACAGTGTGG
switch fluorescence ratio: 0.997 ± 0.049

GACAGTTGGG
switch fluorescence ratio: 0.999 ± 0.017

GACATAAAAA
switch fluorescence ratio: 0.986 ± 0.076

GACATAAGTT
switch fluorescence ratio: 1 ± 0.044

GACATATTAT
switch fluorescence ratio: 1.013 ± 0.0057

GACATCCCCT
switch fluorescence ratio: 1.04 ± 0.047

GACATGAAGG
switch fluorescence ratio: 1 ± 0.015

GACATGGCAG
switch fluorescence ratio: 1.02 ± 0.04

GACATGGCGG
switch fluorescence ratio: 1.01 ± 0.024

GACATGGGGA
switch fluorescence ratio: 1.06 ± 0.015

GACATGGGTG
switch fluorescence ratio: 1.02 ± 0.031

GACATTAGTC
switch fluorescence ratio: 0.99 ± 0.011

GACATTTCTT
switch fluorescence ratio: 1.01 ± 0.011
